T1: HA-dm-HDAC6 (in vitro translated) (human, UniProt Q9UBN7 1-1215, H216A | H611A)
T1 construct: also called dead-mutant (dm) HDAC6; H216A/H611A; not shown: HA, N-terminal, kept
T1 sequence (looked up): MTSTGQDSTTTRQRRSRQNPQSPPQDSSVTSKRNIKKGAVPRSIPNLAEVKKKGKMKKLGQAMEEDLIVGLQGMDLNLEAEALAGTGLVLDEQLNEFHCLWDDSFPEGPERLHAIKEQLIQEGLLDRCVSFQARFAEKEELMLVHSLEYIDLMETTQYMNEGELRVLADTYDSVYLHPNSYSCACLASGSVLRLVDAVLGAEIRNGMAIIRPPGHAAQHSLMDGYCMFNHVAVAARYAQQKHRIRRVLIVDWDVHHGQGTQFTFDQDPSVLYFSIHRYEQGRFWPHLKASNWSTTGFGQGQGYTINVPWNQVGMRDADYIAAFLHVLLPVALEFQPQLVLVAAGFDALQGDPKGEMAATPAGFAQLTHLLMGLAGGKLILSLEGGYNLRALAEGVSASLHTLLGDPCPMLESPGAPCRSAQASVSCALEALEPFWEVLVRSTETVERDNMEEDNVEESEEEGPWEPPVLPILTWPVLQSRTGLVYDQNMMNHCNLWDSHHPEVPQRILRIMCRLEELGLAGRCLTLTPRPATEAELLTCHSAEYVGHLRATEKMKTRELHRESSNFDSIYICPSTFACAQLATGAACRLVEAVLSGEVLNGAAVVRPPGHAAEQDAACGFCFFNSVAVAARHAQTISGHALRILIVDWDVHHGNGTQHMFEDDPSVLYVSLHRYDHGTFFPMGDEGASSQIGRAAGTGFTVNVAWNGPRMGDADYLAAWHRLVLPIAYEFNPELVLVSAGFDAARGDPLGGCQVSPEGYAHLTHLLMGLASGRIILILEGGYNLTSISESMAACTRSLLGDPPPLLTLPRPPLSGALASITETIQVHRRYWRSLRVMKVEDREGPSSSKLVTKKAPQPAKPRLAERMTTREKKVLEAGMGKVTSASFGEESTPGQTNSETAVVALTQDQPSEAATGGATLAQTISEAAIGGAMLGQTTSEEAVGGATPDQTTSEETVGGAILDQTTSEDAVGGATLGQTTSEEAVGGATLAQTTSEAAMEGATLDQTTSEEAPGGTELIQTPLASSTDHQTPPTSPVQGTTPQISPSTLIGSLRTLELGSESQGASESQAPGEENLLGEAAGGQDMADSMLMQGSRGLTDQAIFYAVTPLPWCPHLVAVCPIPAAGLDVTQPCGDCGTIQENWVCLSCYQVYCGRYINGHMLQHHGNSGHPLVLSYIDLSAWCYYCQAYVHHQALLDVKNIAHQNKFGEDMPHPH

T2: HA-wt-HDAC6 (in vitro translated) (human, UniProt Q9UBN7 1-1215)
T2 construct: also called HA-HDAC6; source: in vitro translated (rabbit-reticulocytes system), purified on anti-HA agarose; not shown: HA, N-terminal, kept
T2 sequence (looked up): T1 sequence (looked up) with A216H, A611H

B1: GST-A3G (natural protein, human, UniProt Q9HC16 1-384, looked up)
chain: MKPHFRNTVERMYRDTFSYNFYNRPILSRRNTVWLCYEVKTKGPSRPPLDAKIFRGQVYSELKYHPEMRFFHWFSKWRKLHRDQEYEVTWYISWSPCTKCTRDMATFLAEDPKVTLTIFVARLYYFWDPDYQEALRSLCQKRDGPRATMKIMNYDEFQHCWSKFVYSQRELFEPWNNLPKYYILLHIMLGEILRHSMDPPTFTFNFNNEPWVRGRHETYLCYEVERMHNDTWVLLNQRRGFLCNQAPHKHGFLEGRHAELCFLDVIPFWKLDLDQDYRVTCFTSWSPCFSCAQEMAKFISKNKHVSLCIFTARIYDDQGRCQEGLRTLAEAGAKISIMTYSEFKHCWDTFVDHQGCPFQPWDGLDEHSQDLSGRLRAILQNQEN
notes: also called wt-A3G; GST-A3G (wt); source: E. coli BL21-DE3, purified on GSH-Sepharose
B2: GST-A3G-D128K (natural protein, human, UniProt Q9HC16 1-384, looked up)
chain: B1 chain with D128K
notes: source: E. coli BL21-DE3, purified on GSH-Sepharose
B3: GST-A3G-C97A (natural protein, human, UniProt Q9HC16 1-384, looked up)
chain: B1 chain with C97A
notes: as for B2
B4: GST-Vif (natural protein)
chain: not shown
notes: as for B2

Where a chain is given by its changes, count along the chain named. In names and notes the source's numbering stands.

The values below come from paper PMC4479245, “The HDAC6/APOBEC3G complex regulates HIV-1 infectiveness by inducing Vif autophagic degradation” (Retrovirology, 2015).

In the first experiment the target is T1, HA-dm-HDAC6 (in vitro translated). As to the kind of experiment: pull-down; 3 μg GST fusion protein immobilised on glutathione-Sepharose beads, 2 μg purified in vitro translated HA-tagged protein, overnight in RIPA buffer at 4°C, three washes; anti-HA blot. Particulars: both partners purified.
On to B1, for which the binding result was “binds”.

As to B2, the binding result was “binds”.

For the molecule B3, the binding result was “binds”.

In the next experiment the target is T2, HA-wt-HDAC6 (in vitro translated). Described as above. As to conditions: both partners purified.
Regarding B1, the binding result is on record as “binds”.

For B2, the binding result is given as “binds”.

Turning to B3, the binding result was “binds”.

For B4, the binding result is “binds”.
